From the supplement of paper PMC9170038

Tested on: MS2 coat protein
Assay: apparent KD of MS2 coat protein; higher = weaker reporter binding
Conditions: Eterna round: R107
Method in brief: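 Binding of SNAP-549-labelled MS2 coat protein was measured on designed RNA switches transcribed on-chip from Illumina sequencing clusters. The protein rose in twofold steps from 0.7 or 1.5 nM to 3 µM, with 0.8–1.5 h per step early on and 10–20 min per step later, in 100 mM Tris-HCl pH 7.5, 80 mM KCl, 4 mM MgCl2, without or with constant ligand. Each design's apparent KD is the median of fits to its normalised cluster binding curves.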

[1] = input ligand: theophylline 20 uM
[2] = input ligand: theophylline 2 mM
[3] = input ligand: tryptophan 2.4 mM

Row | Sequence | apparent KD of MS2 coat protein (input ligand: arginine 13.2 mM) [µM] | apparent KD of MS2 coat protein [1] [µM] | apparent KD of MS2 coat protein [2] [µM] | apparent KD of MS2 coat protein (input ligand: none) [µM] | apparent KD of MS2 coat protein [3] [µM]
1 | GGCACAUAGUCGGCCGCCACUAGAAUAAGAUGGAAUAACAUGAGGAUCACCCAUGUAAAAGGGACUAGGACCGGGACUAUGUGCC [Goat] | 0.0129 | 0.0157 | 0.0143 | – | –
2 | GGCACCAGGAGAAGGAGCGUGAAGACAUGAGGAUCACCCAUGUAGAGGCCCGUACCGGGUUCGCAGGUAGGUCGCUCCUGGUGCC [#1 Same State - Arginine B Attempt #14 (HarryS)] | 0.0192 | 0.0381 | 0.0271 | 0.023 | 0.0242
3 | GGCCCUGCGAGCGCUCGCAGGGCCGCGGAUACCAGCGAGGUCCAUCGCCCUUGGCAGCCGAACAUGAGGAUCACCCAUGUCGGUA [#1 Same State - Theophylline A Attempt #13 (HarryS)] | 0.00787 | 0.0129 | 0.0183 | 0.00984 | 0.00944
4 | GGCCGAAACGGCCAAGGUAUCAUGACCGAUACCAGCGAAGAAGAACGCCCUUGGCAGCGGACAUGAGGAUCACCCAUGUAAAGAA | 0.0245 | 0.0383 | 0.124 | 0.016 | 0.0139
5 | GGCUAGGCUAGCGAUACCAGCAACCAACAUGAUCUGAGGAUCACCCAGGUAGUUGGACGUUGCCCUUGGCAGCGCUAGCCUAGCC [SSThB NP+V+V2 #12 Diff Apt, Same Structure] | 0.0154 | 0.016 | 0.0122 | 0.0143 | 0.0155
6 | GGCUAGUGCAUCGAUACCAGCUACAUGAGGAUCACCCAUGUAGGAAGGGUGGCACUCGAUAGCCCUUGGCAGCGAACACCUCCGG [Cebebion] | 0.053 | 0.0312 | 0.0281 | 0.0189 | 0.0163
7 | GGCUAUACUACGGCCGCCACUGAACAUGAGGAUCACCCAUGUAAUGUUCAGAUUUUUUUUUUUUACAGGACCGGGUAGAAUUGCC [Tryptophan B 3] | 0.0826 | 0.22 | 0.299 | – | –
8 | GGGAUAUCCCGAAGGAGCGCGAGAUGCUGUGCUGCAUUCCUCACAUGAGGAUCACCCAUGUCGCAGGUAGGUCGCGGGAUAUCCC [#16 Exclusion - Arginine B] | 0.151 | 0.452 | 0.553 | 0.45 | 0.485
9 | GGGCCCGGGCGCGAGCCCGGGCCCAUUGAUACCAGUGAAGAAGAGCGCCCUUGGCAGCGAAUCCUAACAUGAGGAUCACCCAUGU [5.P] | 0.0632 | 0.0743 | 0.0773 | 0.0436 | 0.0388
10 | GGGCCCGGGCGCGAGCCCGGGCCCAUUGAUACCAGUGAUAGAGAGCGCCCUUGGCAGCGAAUCCUAACAUGAGGAUCACCCAUGU [5.K] | 0.0375 | 0.0952 | 0.0839 | 0.0463 | 0.0566
11 | GGGCCCGGGCGCGAGCCCGGGCCCAUUGAUACCAGUGAUAUAUGACGCCCUUGGCAGCGAAUCCUAACAUGAGGAUCACCCAUGU [5.H] | 0.0228 | 0.0589 | 0.0816 | 0.0547 | 0.0371
12 | GGGCGCGUGGACCGGCGUGCUCCGCUCCGUCGAGGACCGGUACGGCCGCCACUCGACAUGAGGAUCACCCAUGUGUGAGCUCGCG [#1 Exclusion - Tryptophan A Attempt #16 (HarryS)] | 0.0225 | 0.0636 | 0.08 | – | –
13 | GGGUAAGAUCCGGAUACCAGCGAACAUGAGGAUCACCCAUGUGACCUAAGAUAGGCUAAACGCCCUUGGCAGCCGAGAUAGCGUU [Same State Theophylline B GF 6] | 0.0272 | 0.0342 | 0.0307 | 0.0413 | 0.0395
14 | GGGUACAUCGCGGCCGCCACUCAUGUAAAUUCAUGAGGAUCACCCAUGACGAUGGAGACAUCGGAGAGGACCGGGUGAUGUACCG | 0.0265 | 0.023 | 0.0208 | 0.0168 | 0.0168
15 | GGGUACAUCGCGGCCGCCACUGAUGUAAAUACAUGAGGAUCACCCAUGUCGAUGGAGACAUCGGCCAGGACCGGGUGAUGUACCG | 0.0131 | 0.0241 | 0.0165 | 0.014 | 0.0116
16 | GGGUACAUCGCGGCCGCCACUUAUGUAAAUACAUGAGGAUCACCCAUGUCGAUGGAGACAUCGGAGAGGACCGGGUGAUGUACCG | 0.0282 | 0.0416 | 0.048 | – | –
17 | GGGUGGUAGGCGGCCGCCACUGAUUUUUAUAUAUAUAUGACAUGAGGAUCACCCAUGUAGAUAUGCAGGACCGGGCCUGUUGUUU [aaaN] | 0.0224 | 0.0282 | 0.022 | 0.0222 | 0.0283
18 | GGUCGCCAACAUGGGUGGGCGACCCUGGAAGGAGCGAGCGAGAGCUCAGGUAGGUCGCCAGAACAUGAGGAUCACCCAUGUAAUA [(A)''-(M)'-(A)'(Arg1)-(Arg2)-(M1)-(M2)_Design13] | 0.0708 | 0.162 | 0.0703 | 0.0445 | 0.0596
19 | GGUCGCCAACAUGGGUGGGUGACCCUGGAAGGAGCGAGCGAGAGCUCAGGUAGGUCGCCAGAACAUGAGGAUCACCCAUGUAAUA [(A)''-(M)'-(A)'(Arg1)-(Arg2)-(M1)-(M2)_Design14] | 0.0383 | 0.09 | 0.139 | 0.0635 | 0.0658

Row | Sequence | apparent KD of MS2 coat protein (input ligand: arginine 13.2 mM) [µM] | apparent KD of MS2 coat protein [1] [µM] | apparent KD of MS2 coat protein [2] [µM] | apparent KD of MS2 coat protein (input ligand: none) [µM] | apparent KD of MS2 coat protein [3] [µM]
20 | GGUGGCGUGACGGAUACCAGCCACCGCCGCAAGGCAACAUGAGGAUCACCCAUGUUGGGUGGCCCUUGGCAGCUGUCGUGCGGCG [#1 Same State - Theophylline B Attempt #22 (HarryS)] | 0.0133 | 0.151 | 0.159 | 0.195 | 0.0502
21 | GGUGGCUGGACUGAUACCAGCCACCACCGAUAGACCACAUGAGGAUCACCCAUGUUGGGUGGCCCUUGGCAGCAGUCCAGCUGCC [#1 Same State - Theophylline B Attempt #10 (HarryS)] | 0.152 | 0.374 | 2.99 | 0.607 | 0.873
22 | GGUUACUCUACGGCCGCCACUGAUAAAUAAUAAACCUGUACAUAAACAUGAGGAUCACCCAUGUACAGGACCGGGUAGUGUAACC [Tryptophan B 7] | 0.0305 | 0.0412 | 0.0347 | – | –
23 | GGUUACUCUACGGCCGCCACUGAUUAUUUAUAGUCCUGUACAUAAACAUGAGGAUCACCCAUGUACAGGACCGGGUAGUGUAACC [Tryptophan B 12] | 0.0285 | 0.0539 | 0.0406 | – | –
24 | GGUUACUCUACGGCCGCCACUGGGCAUGUAAAUAACAUGAGGAUCACCCAUGUGGAUUAAUAUUACAGGACCGGGUAGUGUAACC [Tryptophan B 23] | 0.126 | 0.253 | 0.384 | 0.279 | 0.0251
25 | GGUUACUCUACGGCCGCCACUGUAAAGUAAAUAUUAAUGUACAUGACAUGAGGAUCACCCAUGUACAGGACCGGGUAGUGUAACC [Tryptophan B 14] | 0.0455 | 0.0565 | 0.0465 | – | –
26 | GUAGCGACGACGGCCGCCACUCACAGGUGAGGGUAGACCAACCUUCACAUGAGGAUCACCCAUGUGAGGACCGGGUUGUCGGUAC [#11 Exclusion Tryptophan B] | 0.0509 | 0.0955 | 0.111 | 0.134 | 0.146
27 | GUAGCGACGGCGGCCGCCACUCACAGGUGAGGGUAGACCAACCUUCACAUGAGGAUCACCCAUGUGAGGACCGGGCUGUCGCUAC [#13 Exclusion Tryptophan B] | 0.0363 | 0.117 | 0.122 | – | –
28 | GUAUACAUGAGGAUCACCCAUGUGCCAGAAGGAGCGCUGGAAACGGCAGGUAGGUCGCUGGUAGGUCCUCUAUCUAGACGUUCGG [#17 Exclusion - Arginine A] | 0.0526 | 0.188 | 0.188 | 0.0975 | 0.0603
29 | GUAUCGACAUGAGGAUCACCCAUGUCCGAAGGAGCGUUGGGAACAACAGGUAGGUCGCGGACAUAGAGCAUCCGGAAACGGAUGC [EAA NP+V+V2 #1] | 0.0101 | 0.0164 | 0.0343 | 0.014 | 0.0139
30 | GUAUCUAUGUGAAAUAGAUAUGUAACUGAAGGAGCGUCAUUAAGGACAGGUAGGUCGCGGAGCACAUGAGGAUCACCCAUGUCGG [#09 Same State - Arginine A] | 0.0247 | 0.0311 | 0.0355 | 0.0421 | 0.0343
31 | GUAUUACGGACGGCCGCCACUGUGGGACAUGAGGAUCACCCAUGUGGCGCUACUUACAAGUGCGACAGGACCGGGUCAUGGUUUG [theeternabot_sameState_MS2_Trp_B_1] | 0.152 | 0.732 | 0.783 | – | –
32 | GUCCUAGCGAGCACUCGCUAGGACGCGGAUACCAGCGAGGUCCAUCGCCCUUGGCAGCCGAACAUGAGGAUCACCCAUGUCGGUA [#1 Same State - Theophylline A Attempt #17 (HarryS)] | 0.0126 | 0.0132 | 0.018 | 0.01 | 0.00986
33 | GUCCUCAGCCGAAGGAGCGCUAGAAGAUGACAUGAGGAUCACCCAUGUGUGUGAUGUGGCUAGCAGGUAGGUCGCGGAGAGGAUU [Exclusion - Arginine B (Freestyle 16)] | 0.0198 | 0.0371 | 0.028 | 0.0229 | 0.0206
34 | GUUAUUAGAAAACUAAUAACAGUGGGUGAACGAGGACCGGUACGGCCGCCACUCGGACAUGAGGAUCACCCAUGUCCAUGUGAAA [AstrosExyTryA#4] | 0.0121 | 0.0158 | 0.0165 | – | –
35 | GUUGGAUUCUCGGCCGCCACUGAGAGAGUCAUGUGAACAUGAGGAUCACCCAUGUAAUAUAUAUACAGGACCGGGAGGGUUGUAA [4.K] | 0.0219 | 0.0358 | 0.0226 | 0.0202 | 0.0148
36 | UAAAACAUGAGGAUCACCCAUGUAAUUGAUACCAGAGUGAUGAUCCUCCCUUGGCAGCAAAACGCUGAUUGAUUACAAUCAGCGA [Mat - Same State Theophlline A - Mod of Eli - D24] | 0.0368 | 0.169 | – | – | 0.0425
37 | UAAACUACACAUGAGGAUCACCCAUGUGGCCGAGGACCGGUACGGCCGCCACUCGUGUGUUAAUAAAAGAACUGCAAGAUUCUUU [Issoraor] | 0.0783 | 0.22 | 0.396 | – | –
